Measurements from patent US10562947B2, “Compositions and methods for preventing or treating diseases, conditions or processes characterized by aberrant fibroblast proliferation and extracellular matrix deposition” (MOERAE MATRIX, INC., priority 2011, dated 2020).

Columns and labels:
Test in all cases: Kinase Profiling Assay
Type in all cases: biochemical
Conditions in all cases: 100 μM peptide
[1] = molecular target: T1, PKCι(h) (Homo sapiens, UniProt P41743)
T1 construct: purchased Millipore (IC50 Profiler Express service)
T1 sequence (P41743 1-596): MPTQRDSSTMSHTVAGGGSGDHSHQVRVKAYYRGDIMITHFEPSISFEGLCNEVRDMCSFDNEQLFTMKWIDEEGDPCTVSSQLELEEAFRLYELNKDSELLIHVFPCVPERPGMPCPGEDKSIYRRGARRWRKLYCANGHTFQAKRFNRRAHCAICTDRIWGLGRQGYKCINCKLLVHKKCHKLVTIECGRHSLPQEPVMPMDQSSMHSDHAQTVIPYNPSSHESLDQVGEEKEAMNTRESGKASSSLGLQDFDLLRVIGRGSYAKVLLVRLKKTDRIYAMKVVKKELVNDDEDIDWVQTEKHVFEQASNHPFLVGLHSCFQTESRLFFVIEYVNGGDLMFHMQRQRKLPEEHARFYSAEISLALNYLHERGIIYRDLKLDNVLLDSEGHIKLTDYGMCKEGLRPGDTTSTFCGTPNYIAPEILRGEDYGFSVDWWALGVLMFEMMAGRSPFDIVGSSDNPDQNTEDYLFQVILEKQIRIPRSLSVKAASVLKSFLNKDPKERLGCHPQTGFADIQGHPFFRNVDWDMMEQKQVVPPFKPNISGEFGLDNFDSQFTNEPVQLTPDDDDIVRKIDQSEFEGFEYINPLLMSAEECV
In short: (§1)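 Specificity of the MK2-directed peptides is examined by measuring activity of 266 human kinases, every determination performed in duplicate.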

[2] = molecular target: PAK2(h) (Homo sapiens, UniProt Q13177)
PAK2(h), sequence (Q13177 whole entry): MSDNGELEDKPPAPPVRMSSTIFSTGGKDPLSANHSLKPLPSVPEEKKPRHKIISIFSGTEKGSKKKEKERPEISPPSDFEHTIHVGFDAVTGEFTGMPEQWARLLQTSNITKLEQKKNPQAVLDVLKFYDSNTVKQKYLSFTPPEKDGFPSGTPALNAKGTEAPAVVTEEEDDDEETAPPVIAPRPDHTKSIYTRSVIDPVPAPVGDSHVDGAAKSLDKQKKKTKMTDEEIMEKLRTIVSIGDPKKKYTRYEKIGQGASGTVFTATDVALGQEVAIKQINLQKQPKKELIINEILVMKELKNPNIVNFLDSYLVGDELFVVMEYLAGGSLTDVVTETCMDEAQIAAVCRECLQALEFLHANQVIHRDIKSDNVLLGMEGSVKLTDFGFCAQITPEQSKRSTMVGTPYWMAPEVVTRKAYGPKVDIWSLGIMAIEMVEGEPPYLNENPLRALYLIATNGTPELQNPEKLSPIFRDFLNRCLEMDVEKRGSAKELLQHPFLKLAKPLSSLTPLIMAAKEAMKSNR
In short: as §1

[3] = molecular target: WNK2(h) (Homo sapiens, UniProt Q9Y3S1)
In short: as §1

[4] = molecular target: Lck(h) activated (Homo sapiens, UniProt P06239)
Lck(h) activated, sequence (P06239 whole entry): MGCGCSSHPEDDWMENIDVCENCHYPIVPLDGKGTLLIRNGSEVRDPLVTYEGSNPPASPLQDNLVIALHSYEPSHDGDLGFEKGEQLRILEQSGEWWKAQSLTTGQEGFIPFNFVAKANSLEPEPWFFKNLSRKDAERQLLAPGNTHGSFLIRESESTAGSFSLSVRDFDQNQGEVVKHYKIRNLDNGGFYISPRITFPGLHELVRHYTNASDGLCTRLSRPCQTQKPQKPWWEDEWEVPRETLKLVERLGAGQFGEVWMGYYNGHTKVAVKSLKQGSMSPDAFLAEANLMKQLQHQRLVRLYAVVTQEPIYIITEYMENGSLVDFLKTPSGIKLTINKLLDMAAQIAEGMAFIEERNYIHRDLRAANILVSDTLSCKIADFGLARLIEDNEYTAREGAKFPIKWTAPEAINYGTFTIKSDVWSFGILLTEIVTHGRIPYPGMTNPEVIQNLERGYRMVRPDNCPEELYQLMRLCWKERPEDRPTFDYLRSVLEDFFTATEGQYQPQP
In short: as §1

[5] = molecular target: T2, SAPK4(h) (Homo sapiens, UniProt O15264)
T2 sequence (O15264 1-365): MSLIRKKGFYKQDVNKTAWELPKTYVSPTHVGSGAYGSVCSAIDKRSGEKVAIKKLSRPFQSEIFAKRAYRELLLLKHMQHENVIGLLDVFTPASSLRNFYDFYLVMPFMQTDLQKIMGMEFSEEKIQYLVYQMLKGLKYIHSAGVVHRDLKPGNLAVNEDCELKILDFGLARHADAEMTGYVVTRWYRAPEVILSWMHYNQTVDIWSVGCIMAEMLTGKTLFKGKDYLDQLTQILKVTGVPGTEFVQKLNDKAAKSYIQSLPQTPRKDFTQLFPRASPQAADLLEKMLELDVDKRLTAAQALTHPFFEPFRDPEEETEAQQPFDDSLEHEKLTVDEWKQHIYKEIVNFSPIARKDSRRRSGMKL
In short: as §1

[6] = molecular target: BTK(R28H)(h) (Homo sapiens, UniProt Q06187, R28H)
BTK(R28H)(h), sequence (Q06187 whole entry R28H): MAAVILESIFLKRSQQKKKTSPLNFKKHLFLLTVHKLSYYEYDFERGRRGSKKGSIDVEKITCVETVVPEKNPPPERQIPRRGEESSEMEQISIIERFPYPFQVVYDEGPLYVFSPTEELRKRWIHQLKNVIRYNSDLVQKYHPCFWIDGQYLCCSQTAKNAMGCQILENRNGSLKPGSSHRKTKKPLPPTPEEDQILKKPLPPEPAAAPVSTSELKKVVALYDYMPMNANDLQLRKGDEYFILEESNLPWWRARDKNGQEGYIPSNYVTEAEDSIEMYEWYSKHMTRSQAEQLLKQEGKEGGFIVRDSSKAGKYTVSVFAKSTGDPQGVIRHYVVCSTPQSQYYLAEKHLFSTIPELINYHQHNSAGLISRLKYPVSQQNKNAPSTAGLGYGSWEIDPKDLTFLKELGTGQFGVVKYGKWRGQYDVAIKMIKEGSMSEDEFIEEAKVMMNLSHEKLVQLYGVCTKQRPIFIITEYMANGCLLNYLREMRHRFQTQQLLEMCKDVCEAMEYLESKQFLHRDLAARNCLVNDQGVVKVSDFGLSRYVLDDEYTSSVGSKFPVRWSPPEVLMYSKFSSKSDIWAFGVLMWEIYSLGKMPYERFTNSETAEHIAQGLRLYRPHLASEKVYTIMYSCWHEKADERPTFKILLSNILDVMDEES
In short: as §1

[7] = molecular target: EphA7(h) (Homo sapiens, UniProt Q15375)
In short: as §1

[8] = molecular target: MLCK(h) (Homo sapiens, UniProt Q9H1R3)
MLCK(h), sequence (Q9H1R3 2-596 limits assumed): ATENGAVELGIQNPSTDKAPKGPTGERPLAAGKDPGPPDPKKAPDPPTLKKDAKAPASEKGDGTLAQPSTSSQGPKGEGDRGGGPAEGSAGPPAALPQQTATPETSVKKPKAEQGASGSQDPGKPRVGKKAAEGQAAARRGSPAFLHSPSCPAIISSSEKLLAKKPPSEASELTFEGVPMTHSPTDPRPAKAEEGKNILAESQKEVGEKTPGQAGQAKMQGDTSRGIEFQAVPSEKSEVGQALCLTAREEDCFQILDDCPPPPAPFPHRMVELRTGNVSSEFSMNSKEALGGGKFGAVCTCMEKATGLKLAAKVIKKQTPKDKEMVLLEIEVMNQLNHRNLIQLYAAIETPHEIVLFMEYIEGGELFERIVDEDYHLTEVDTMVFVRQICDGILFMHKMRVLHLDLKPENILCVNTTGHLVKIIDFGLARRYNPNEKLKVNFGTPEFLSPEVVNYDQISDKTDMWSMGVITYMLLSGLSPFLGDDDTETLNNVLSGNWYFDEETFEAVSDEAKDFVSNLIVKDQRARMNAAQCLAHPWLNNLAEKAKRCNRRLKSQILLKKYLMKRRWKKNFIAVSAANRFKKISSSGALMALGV
In short: as §1

[9] = molecular target: JNK3(h) (Homo sapiens, UniProt P53779)
JNK3(h), sequence (P53779 whole entry): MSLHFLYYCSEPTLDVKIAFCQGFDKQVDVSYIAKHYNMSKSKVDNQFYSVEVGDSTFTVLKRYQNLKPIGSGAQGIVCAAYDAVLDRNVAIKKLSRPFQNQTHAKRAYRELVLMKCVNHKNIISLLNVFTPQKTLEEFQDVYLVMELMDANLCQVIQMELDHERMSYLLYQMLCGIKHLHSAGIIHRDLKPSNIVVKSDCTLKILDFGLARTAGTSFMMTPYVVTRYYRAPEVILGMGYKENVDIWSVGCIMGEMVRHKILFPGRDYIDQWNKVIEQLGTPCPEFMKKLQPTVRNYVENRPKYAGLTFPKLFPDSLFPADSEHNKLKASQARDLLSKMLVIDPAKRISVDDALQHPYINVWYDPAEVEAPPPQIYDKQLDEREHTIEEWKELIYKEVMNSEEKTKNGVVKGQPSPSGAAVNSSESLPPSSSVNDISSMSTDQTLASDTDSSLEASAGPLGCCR
In short: as §1

[10] = molecular target: T3, EphA1(h) (Homo sapiens, UniProt P21709)
T3 sequence (P21709 26-976): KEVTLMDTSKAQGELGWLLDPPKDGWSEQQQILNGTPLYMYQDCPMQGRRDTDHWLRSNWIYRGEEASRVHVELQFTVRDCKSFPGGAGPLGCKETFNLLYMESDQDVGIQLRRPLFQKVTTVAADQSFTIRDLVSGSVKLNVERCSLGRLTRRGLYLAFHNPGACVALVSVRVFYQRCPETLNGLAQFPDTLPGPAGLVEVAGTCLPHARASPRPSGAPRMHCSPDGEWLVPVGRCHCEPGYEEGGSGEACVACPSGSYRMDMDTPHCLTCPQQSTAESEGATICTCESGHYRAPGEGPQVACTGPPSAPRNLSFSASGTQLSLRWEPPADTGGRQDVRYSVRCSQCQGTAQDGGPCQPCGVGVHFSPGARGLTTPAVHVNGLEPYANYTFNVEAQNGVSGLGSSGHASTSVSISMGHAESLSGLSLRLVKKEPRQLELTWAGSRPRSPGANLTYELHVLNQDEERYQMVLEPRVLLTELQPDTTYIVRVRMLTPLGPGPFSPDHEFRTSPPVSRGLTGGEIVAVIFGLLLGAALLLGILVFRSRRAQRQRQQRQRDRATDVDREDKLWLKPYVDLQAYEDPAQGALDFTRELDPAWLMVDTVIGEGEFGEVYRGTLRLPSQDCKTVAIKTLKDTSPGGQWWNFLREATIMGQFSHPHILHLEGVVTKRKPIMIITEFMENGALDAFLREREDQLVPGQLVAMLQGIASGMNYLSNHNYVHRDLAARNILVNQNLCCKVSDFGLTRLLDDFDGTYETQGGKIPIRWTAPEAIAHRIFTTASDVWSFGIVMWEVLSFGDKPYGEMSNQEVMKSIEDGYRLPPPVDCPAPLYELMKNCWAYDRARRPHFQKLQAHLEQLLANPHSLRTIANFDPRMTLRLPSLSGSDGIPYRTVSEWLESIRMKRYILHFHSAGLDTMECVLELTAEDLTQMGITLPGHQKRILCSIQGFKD
In short: as §1

[11] = molecular target: CK2(h) (Homo sapiens, UniProt P68400)
In short: as §1

[12] = molecular target: PAK5(h) (Homo sapiens, UniProt Q9P286)
PAK5(h), sequence (Q9P286 whole entry): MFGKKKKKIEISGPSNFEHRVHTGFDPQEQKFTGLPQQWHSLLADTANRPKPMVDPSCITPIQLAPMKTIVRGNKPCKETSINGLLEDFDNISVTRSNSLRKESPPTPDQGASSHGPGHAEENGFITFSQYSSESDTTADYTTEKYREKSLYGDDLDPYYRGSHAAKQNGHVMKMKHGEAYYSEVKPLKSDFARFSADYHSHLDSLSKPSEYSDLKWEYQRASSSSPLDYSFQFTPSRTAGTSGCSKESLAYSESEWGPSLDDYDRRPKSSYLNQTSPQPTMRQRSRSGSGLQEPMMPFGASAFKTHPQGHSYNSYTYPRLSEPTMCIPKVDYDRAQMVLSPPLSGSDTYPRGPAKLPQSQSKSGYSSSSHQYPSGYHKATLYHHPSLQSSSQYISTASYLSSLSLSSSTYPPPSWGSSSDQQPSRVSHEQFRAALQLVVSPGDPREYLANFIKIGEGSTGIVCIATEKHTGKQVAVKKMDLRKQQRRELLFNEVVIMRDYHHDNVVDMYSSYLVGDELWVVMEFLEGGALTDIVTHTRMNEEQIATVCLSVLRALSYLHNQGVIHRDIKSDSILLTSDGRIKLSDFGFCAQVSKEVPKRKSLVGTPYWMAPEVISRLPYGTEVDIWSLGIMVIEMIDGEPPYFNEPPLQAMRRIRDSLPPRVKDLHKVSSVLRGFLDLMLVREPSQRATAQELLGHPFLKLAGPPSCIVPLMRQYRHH
In short: as §1

[13] = molecular target: AMPKα1(h) (Homo sapiens, UniProt Q13131)
AMPKα1(h), sequence (Q13131 whole entry): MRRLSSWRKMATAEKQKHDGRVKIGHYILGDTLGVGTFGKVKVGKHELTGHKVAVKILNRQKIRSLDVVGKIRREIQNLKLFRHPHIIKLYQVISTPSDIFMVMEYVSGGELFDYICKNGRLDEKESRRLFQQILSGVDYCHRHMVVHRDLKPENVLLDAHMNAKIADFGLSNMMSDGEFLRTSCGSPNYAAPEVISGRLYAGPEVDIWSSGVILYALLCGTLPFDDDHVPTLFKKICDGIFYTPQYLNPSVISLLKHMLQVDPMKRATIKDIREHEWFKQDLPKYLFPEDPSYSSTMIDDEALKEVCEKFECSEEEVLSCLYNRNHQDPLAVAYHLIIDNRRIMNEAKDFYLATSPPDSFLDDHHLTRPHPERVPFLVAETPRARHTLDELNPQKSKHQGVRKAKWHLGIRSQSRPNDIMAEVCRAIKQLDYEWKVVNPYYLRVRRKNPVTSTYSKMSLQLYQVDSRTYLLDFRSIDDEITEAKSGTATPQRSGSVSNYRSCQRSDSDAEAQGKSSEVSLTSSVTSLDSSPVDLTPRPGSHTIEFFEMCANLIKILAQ
AMPKα1(h), sequence (Q9Y478 whole entry partner): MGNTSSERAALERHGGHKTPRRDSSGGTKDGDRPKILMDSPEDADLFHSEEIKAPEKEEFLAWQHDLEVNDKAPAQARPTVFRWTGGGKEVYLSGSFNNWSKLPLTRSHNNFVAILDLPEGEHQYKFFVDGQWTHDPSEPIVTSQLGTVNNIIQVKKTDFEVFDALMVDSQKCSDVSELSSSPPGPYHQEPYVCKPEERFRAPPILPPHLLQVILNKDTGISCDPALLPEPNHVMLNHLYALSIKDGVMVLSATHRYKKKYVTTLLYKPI
AMPKα1(h), sequence (P54619 whole entry partner): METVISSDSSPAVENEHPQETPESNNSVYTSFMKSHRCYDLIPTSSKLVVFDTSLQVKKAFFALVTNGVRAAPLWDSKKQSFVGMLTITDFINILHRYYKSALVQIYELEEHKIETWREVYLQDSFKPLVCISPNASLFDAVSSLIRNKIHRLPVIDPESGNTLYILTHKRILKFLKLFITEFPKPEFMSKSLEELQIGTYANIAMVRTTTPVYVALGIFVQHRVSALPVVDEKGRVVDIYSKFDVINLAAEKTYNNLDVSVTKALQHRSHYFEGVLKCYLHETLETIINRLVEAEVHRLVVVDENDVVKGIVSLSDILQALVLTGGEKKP
In short: as §1

| Sequence | PKCι(h) % activity [1] [%] | PAK2(h) % activity [2] [%] | WNK2(h) % activity [3] [%] | Lck(h) activated % activity [4] [%] | SAPK4(h) % activity [5] [%] | BTK(R28H)(h) % activity [6] [%] | EphA7(h) % activity [7] [%] | MLCK(h) % activity [8] [%] | JNK3(h) % activity [9] [%] | EphA1(h) % activity [10] [%] | CK2(h) % activity [11] [%] | PAK5(h) % activity [12] [%] | AMPKα1(h) % activity [13] [%] |
| --- | --- | --- | --- | --- | --- | --- | --- | --- | --- | --- | --- | --- | --- |
| HRRIKAWLKKIKALARQLGVAA (Mammalian) [MMI-0500] | 7 | 44 | 8 | 76 | 48 | 10 | 189 | 0 | 171 | 40 | 93 | 125 | 35 |
| FAKLAARLYRKALARQLGVAA [MMI-0300] | 68 | 65 | 64 | 243 | 96 | 74 | 159 | 2 | 89 | 73 | 90 | 110 | 71 |
| YARAAARQARAKALNRQLGVA (Mammalian) [MMI-0200] | 97 | 69 | 94 | 90 | – | – | 220 | – | 90 | – | 83 | 100 | 108 |
| KAFAKLAARLYRKALARQLGVAA [MMI-0400] | 46 | 59 | 54 | 216 | 91 | 24 | 222 | 1 | 70 | 61 | 101 | – | 87 |
